Assays:
Assay in all cases: holdup assay
Design in all cases: key: below the threshold = too weak to quantify, mostly under pKd 3.1 to 4
PARD3B_1, Q8TEW8 = target: T1, PARD3B_1, Q8TEW8
T1 sequence (Q8TEW8 196-299, limits assumed, looked up): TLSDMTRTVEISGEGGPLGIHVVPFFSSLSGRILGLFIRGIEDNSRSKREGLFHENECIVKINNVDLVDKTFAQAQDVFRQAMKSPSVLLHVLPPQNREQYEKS

NHERF2_2, Q15599 = target: NHERF2_2, Q15599
NHERF4_1, Q86UT5-2 = target: NHERF4_1, Q86UT5-2
NHERF4_4, Q86UT5 = target: NHERF4_4, Q86UT5
PTPN3, P26045 = target: PTPN3, P26045
HTRA2, O43464 = target: HTRA2, O43464
CARD11, Q9BXL7 = target: T2, CARD11, Q9BXL7
T2 sequence (Q9BXL7 662-765, limits assumed, looked up): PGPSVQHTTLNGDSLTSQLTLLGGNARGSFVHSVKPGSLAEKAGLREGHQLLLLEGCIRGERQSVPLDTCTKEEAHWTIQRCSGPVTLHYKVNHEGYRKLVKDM

DLG1_3, Q12959 = target: DLG1_3, Q12959
SHANK1, Q9Y566 = target: T3, SHANK1, Q9Y566
T3 sequence (Q9Y566 658-767, limits assumed, looked up): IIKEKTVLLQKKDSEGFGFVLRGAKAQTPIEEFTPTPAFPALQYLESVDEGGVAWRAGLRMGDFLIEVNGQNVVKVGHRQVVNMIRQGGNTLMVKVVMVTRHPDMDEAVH

RHPN1, Q8TCX5 = target: T4, RHPN1, Q8TCX5
T4 sequence (Q8TCX5 508-602, limits assumed, looked up): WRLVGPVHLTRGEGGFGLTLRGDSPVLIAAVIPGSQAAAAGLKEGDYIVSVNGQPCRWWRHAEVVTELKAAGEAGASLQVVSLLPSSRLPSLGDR

SNX27, Q96L92 = target: SNX27, Q96L92
MAGI2_6, Q86UL8 = target: MAGI2_6, Q86UL8
Inadl_2, Q8NI35 = target: Inadl_2, Q8NI35
GRID2IP_2, A4D2P6 = target: GRID2IP_2, A4D2P6
MPDZ_12, O75970 = target: T5, MPDZ_12, O75970
T5 sequence (O75970 1857-1958, limits assumed, looked up): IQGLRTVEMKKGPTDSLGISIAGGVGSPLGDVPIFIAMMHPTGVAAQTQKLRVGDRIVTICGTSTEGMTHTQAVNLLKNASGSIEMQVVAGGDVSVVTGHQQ

GRIP1_4, Q9Y3R0 = target: T6, GRIP1_4, Q9Y3R0
T6 sequence (Q9Y3R0 467-571, limits assumed, looked up): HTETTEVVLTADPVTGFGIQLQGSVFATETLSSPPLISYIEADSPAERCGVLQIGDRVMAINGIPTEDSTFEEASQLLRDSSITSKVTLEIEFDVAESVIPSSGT

MAGI2_2, Q86UL8 = target: MAGI2_2, Q86UL8
GRIP2_4, Q9C0E4 = target: GRIP2_4, Q9C0E4
SIPA1L2, Q9P2F8 = target: T7, SIPA1L2, Q9P2F8
T7 sequence (Q9P2F8 945-1036, limits assumed, looked up): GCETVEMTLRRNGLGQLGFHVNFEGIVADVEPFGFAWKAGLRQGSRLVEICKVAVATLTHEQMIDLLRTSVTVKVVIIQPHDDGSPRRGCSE

FRMPD4, Q14CM0 = target: FRMPD4, Q14CM0
Inadl_1, Q8NI35 = target: Inadl_1, Q8NI35
LIN7C, Q9NUP9 = target: T8, LIN7C, Q9NUP9
T8 sequence (Q9NUP9 88-185, limits assumed, looked up): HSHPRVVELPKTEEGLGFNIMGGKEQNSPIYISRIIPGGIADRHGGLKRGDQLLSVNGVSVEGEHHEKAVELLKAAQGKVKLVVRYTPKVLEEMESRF

GORASP1, Q9BQQ3 = target: GORASP1, Q9BQQ3
LDB3, O75112 = target: LDB3, O75112
FRMPD2_2, Q68DX3 = target: FRMPD2_2, Q68DX3
SCRIB_3, Q14160 = target: SCRIB_3, Q14160
DLG4_1, P78352 = target: DLG4_1, P78352
Inadl_6, Q8NI35 = target: Inadl_6, Q8NI35
LNX1_3, Q8TBB1 = target: LNX1_3, Q8TBB1
[1] = plain residues with an end cap or a label only (N-terminal biotin on a linker: ado-ado)
[2] = modified: phospho on T at position -2 from the C-terminal residue

GRIP2_4, Q9C0E4, sequence (Q9C0E4 446-548): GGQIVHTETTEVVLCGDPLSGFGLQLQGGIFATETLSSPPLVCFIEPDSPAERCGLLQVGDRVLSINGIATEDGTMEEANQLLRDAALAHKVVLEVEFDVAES
DLG1_3, Q12959, sequence (Q12959 457-571): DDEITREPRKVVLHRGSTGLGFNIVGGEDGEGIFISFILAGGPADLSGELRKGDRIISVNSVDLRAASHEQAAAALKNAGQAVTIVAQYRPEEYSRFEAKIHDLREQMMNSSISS
FRMPD2_2, Q68DX3, sequence (Q68DX3 944-1038): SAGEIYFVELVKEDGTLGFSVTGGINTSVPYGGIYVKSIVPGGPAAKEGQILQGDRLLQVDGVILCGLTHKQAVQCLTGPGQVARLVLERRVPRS
PTPN3, P26045, sequence (P26045 505-587): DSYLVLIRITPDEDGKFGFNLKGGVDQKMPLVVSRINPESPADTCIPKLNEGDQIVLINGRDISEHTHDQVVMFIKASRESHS
GRID2IP_2, A4D2P6, sequence (A4D2P6 272-370): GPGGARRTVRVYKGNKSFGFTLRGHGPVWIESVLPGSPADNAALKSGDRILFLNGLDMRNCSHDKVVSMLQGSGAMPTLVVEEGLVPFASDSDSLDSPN
Inadl_6, Q8NI35, sequence (Q8NI35 1058-1167): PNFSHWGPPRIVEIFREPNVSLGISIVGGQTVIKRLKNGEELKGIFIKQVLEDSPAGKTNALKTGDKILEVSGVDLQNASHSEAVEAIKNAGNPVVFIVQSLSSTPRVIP
NHERF2_2, Q15599, sequence (Q15599 142-238): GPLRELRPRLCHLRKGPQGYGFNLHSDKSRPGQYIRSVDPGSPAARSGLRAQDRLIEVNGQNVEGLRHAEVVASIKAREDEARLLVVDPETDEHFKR
Inadl_1, Q8NI35, sequence (Q8NI35 113-229): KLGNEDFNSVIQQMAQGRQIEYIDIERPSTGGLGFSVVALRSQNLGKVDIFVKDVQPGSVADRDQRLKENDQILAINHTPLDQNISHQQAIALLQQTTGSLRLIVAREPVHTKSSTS
MAGI2_2, Q86UL8, sequence (Q86UL8 410-522): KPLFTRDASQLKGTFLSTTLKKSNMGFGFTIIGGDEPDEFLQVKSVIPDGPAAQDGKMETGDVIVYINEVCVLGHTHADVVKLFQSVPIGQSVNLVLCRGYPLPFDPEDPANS
FRMPD4, Q14CM0, sequence (Q14CM0 67-160): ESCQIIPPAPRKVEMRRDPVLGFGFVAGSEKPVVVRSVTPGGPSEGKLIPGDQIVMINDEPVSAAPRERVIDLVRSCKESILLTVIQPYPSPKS
GORASP1, Q9BQQ3, sequence (Q9BQQ3 1-208): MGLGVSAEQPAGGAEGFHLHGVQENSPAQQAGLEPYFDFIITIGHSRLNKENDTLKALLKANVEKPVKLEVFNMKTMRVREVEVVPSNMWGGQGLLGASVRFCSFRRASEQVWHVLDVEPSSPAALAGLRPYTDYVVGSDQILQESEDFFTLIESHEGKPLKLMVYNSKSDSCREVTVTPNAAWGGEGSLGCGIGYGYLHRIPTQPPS
NHERF4_4, Q86UT5, sequence (Q86UT5 464-550): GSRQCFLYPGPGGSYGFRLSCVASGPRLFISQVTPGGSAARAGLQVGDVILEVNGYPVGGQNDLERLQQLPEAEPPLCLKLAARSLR
LDB3, O75112, sequence (O75112 1-94): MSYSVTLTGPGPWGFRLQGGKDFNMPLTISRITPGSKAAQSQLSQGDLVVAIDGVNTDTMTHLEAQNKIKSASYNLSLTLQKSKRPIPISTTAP
MAGI2_6, Q86UL8, sequence (Q86UL8 1141-1229): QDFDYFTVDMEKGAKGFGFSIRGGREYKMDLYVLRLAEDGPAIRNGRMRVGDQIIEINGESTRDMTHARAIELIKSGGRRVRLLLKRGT
SCRIB_3, Q14160, sequence (Q14160 999-1103): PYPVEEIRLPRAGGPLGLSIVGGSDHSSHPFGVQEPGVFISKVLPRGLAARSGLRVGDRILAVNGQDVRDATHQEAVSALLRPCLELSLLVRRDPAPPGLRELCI
DLG4_1, P78352, sequence (P78352 62-152): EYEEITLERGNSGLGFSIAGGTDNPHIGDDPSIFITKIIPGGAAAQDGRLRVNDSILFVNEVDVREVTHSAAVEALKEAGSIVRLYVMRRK
LNX1_3, Q8TBB1, sequence (Q8TBB1 500-596): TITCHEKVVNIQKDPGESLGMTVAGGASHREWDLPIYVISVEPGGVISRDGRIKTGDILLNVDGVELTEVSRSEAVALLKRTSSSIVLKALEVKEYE
Inadl_2, Q8NI35, sequence (Q8NI35 238-335): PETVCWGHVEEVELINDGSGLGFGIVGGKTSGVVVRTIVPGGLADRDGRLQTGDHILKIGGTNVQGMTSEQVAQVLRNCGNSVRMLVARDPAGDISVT
HTRA2, O43464, sequence (O43464 355-458): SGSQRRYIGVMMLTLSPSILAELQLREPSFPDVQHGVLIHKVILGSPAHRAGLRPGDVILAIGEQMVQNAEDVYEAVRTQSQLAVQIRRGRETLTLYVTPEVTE
NHERF4_1, Q86UT5-2, sequence (Q86UT5 other isoform, or with tags, fused parts or gaps): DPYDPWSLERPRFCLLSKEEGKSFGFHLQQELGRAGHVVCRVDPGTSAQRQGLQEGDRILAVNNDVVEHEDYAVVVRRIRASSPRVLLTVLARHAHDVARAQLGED

QLKSGRDSTV [TMEM178A, Q8NBL3]
pKd (PARD3B_1, Q8TEW8; [1]): below the threshold
pKd (NHERF2_2, Q15599; [1]): 3.55
pKd (NHERF4_1, Q86UT5-2; [1]): below the threshold
pKd (NHERF4_4, Q86UT5; [1]): 3.74
pKd (PTPN3, P26045; [1]): 4.4
pKd (HTRA2, O43464; [1]): 3.65
pKd (CARD11, Q9BXL7; [1]): below the threshold
pKd (DLG1_3, Q12959; [1]): 3.85
pKd (SHANK1, Q9Y566; [1]): below the threshold
pKd (RHPN1, Q8TCX5; [1]): 4.06
pKd (SNX27, Q96L92; [1]): 4.01
pKd (MAGI2_6, Q86UL8; [1]): 3.85
pKd (Inadl_2, Q8NI35; [1]): below the threshold
pKd (GRID2IP_2, A4D2P6; [1]): 3.54
pKd (MPDZ_12, O75970; [1]): below the threshold
pKd (GRIP1_4, Q9Y3R0; [1]): 3.56
pKd (MAGI2_2, Q86UL8; [1]): 4
pKd (GRIP2_4, Q9C0E4; [1]): below the threshold
pKd (SIPA1L2, Q9P2F8; [1]): below the threshold
pKd (FRMPD4, Q14CM0; [1]): 3.61
pKd (Inadl_1, Q8NI35; [1]): below the threshold
pKd (LIN7C, Q9NUP9; [1]): 4.13
pKd (GORASP1, Q9BQQ3; [1]): below the threshold
pKd (LDB3, O75112; [1]): below the threshold
pKd (FRMPD2_2, Q68DX3; [1]): below the threshold
pKd (SCRIB_3, Q14160; [1]): 3.48
pKd (DLG4_1, P78352; [1]): 4.34
pKd (Inadl_6, Q8NI35; [1]): below the threshold
pKd (LNX1_3, Q8TBB1; [1]): below the threshold

DYSNLRETDI [ADRA1D, P25100]
pKd (PARD3B_1, Q8TEW8; [1]): below the threshold
pKd (NHERF2_2, Q15599; [1]): below the threshold
pKd (NHERF4_1, Q86UT5-2; [1]): below the threshold
pKd (NHERF4_4, Q86UT5; [1]): below the threshold
pKd (PTPN3, P26045; [1]): 4.57
pKd (HTRA2, O43464; [1]): below the threshold
pKd (CARD11, Q9BXL7; [1]): below the threshold
pKd (DLG1_3, Q12959; [1]): below the threshold
pKd (SHANK1, Q9Y566; [1]): below the threshold
pKd (RHPN1, Q8TCX5; [1]): 4.35
pKd (SNX27, Q96L92; [1]): 4.21
pKd (MAGI2_6, Q86UL8; [1]): 4.31
pKd (Inadl_2, Q8NI35; [1]): below the threshold
pKd (GRID2IP_2, A4D2P6; [1]): below the threshold
pKd (MPDZ_12, O75970; [1]): below the threshold
pKd (GRIP1_4, Q9Y3R0; [1]): below the threshold
pKd (MAGI2_2, Q86UL8; [1]): below the threshold
pKd (GRIP2_4, Q9C0E4; [1]): below the threshold
pKd (SIPA1L2, Q9P2F8; [1]): below the threshold
pKd (FRMPD4, Q14CM0; [1]): below the threshold
pKd (Inadl_1, Q8NI35; [1]): below the threshold
pKd (LIN7C, Q9NUP9; [1]): 4.05
pKd (GORASP1, Q9BQQ3; [1]): below the threshold
pKd (LDB3, O75112; [1]): below the threshold
pKd (FRMPD2_2, Q68DX3; [1]): below the threshold
pKd (SCRIB_3, Q14160; [1]): 5.27
pKd (DLG4_1, P78352; [1]): 3.89
pKd (Inadl_6, Q8NI35; [1]): 3.73
pKd (LNX1_3, Q8TBB1; [1]): below the threshold

SRSRRRETAL [HPV33-E6_-2P, P06427]
pKd (PARD3B_1, Q8TEW8; [2]): below the threshold
pKd (NHERF2_2, Q15599; [2]): below the threshold
pKd (NHERF4_1, Q86UT5-2; [2]): 4.6
pKd (NHERF4_4, Q86UT5; [2]): below the threshold
pKd (PTPN3, P26045; [2]): 4.02
pKd (HTRA2, O43464; [2]): below the threshold
pKd (CARD11, Q9BXL7; [2]): below the threshold
pKd (DLG1_3, Q12959; [2]): below the threshold
pKd (SHANK1, Q9Y566; [2]): below the threshold
pKd (RHPN1, Q8TCX5; [2]): below the threshold
pKd (SNX27, Q96L92; [2]): below the threshold
pKd (MAGI2_6, Q86UL8; [2]): below the threshold
pKd (Inadl_2, Q8NI35; [2]): below the threshold
pKd (GRID2IP_2, A4D2P6; [2]): below the threshold
pKd (MPDZ_12, O75970; [2]): below the threshold
pKd (GRIP1_4, Q9Y3R0; [2]): below the threshold
pKd (MAGI2_2, Q86UL8; [2]): below the threshold
pKd (GRIP2_4, Q9C0E4; [2]): below the threshold
pKd (SIPA1L2, Q9P2F8; [2]): below the threshold
pKd (FRMPD4, Q14CM0; [2]): 3.73
pKd (Inadl_1, Q8NI35; [2]): below the threshold
pKd (LIN7C, Q9NUP9; [2]): 4.08
pKd (GORASP1, Q9BQQ3; [2]): below the threshold
pKd (LDB3, O75112; [2]): below the threshold
pKd (FRMPD2_2, Q68DX3; [2]): below the threshold
pKd (SCRIB_3, Q14160; [2]): below the threshold
pKd (DLG4_1, P78352; [2]): below the threshold
pKd (Inadl_6, Q8NI35; [2]): below the threshold
pKd (LNX1_3, Q8TBB1; [2]): below the threshold

TKEIPNCTSV [SORCS3, Q9UPU3]
pKd (PARD3B_1, Q8TEW8; [1]): below the threshold
pKd (NHERF2_2, Q15599; [1]): 3.94
pKd (NHERF4_1, Q86UT5-2; [1]): 4.2
pKd (NHERF4_4, Q86UT5; [1]): 4.05
pKd (PTPN3, P26045; [1]): 4.74
pKd (HTRA2, O43464; [1]): below the threshold
pKd (CARD11, Q9BXL7; [1]): below the threshold
pKd (DLG1_3, Q12959; [1]): 4.14
pKd (SHANK1, Q9Y566; [1]): 3.92
pKd (RHPN1, Q8TCX5; [1]): 3.81
pKd (SNX27, Q96L92; [1]): 5.16
pKd (MAGI2_6, Q86UL8; [1]): 4.43
pKd (Inadl_2, Q8NI35; [1]): below the threshold
pKd (GRID2IP_2, A4D2P6; [1]): 4.29
pKd (MPDZ_12, O75970; [1]): 3.84
pKd (GRIP1_4, Q9Y3R0; [1]): below the threshold
pKd (MAGI2_2, Q86UL8; [1]): 4.29
pKd (GRIP2_4, Q9C0E4; [1]): below the threshold
pKd (SIPA1L2, Q9P2F8; [1]): 3.49
pKd (FRMPD4, Q14CM0; [1]): 3.65
pKd (Inadl_1, Q8NI35; [1]): below the threshold
pKd (LIN7C, Q9NUP9; [1]): below the threshold
pKd (GORASP1, Q9BQQ3; [1]): below the threshold
pKd (LDB3, O75112; [1]): below the threshold
pKd (FRMPD2_2, Q68DX3; [1]): 4.21
pKd (SCRIB_3, Q14160; [1]): 4.24
pKd (DLG4_1, P78352; [1]): 4.26
pKd (Inadl_6, Q8NI35; [1]): below the threshold
pKd (LNX1_3, Q8TBB1; [1]): below the threshold

SAGADSETHC [SLCO1B1, Q9Y6L6]
pKd (PARD3B_1, Q8TEW8; [1]): below the threshold
pKd (NHERF2_2, Q15599; [1]): 3.72
pKd (NHERF4_1, Q86UT5-2; [1]): below the threshold
pKd (NHERF4_4, Q86UT5; [1]): below the threshold
pKd (PTPN3, P26045; [1]): 4.01
pKd (HTRA2, O43464; [1]): below the threshold
pKd (CARD11, Q9BXL7; [1]): below the threshold
pKd (DLG1_3, Q12959; [1]): below the threshold
pKd (SHANK1, Q9Y566; [1]): below the threshold
pKd (RHPN1, Q8TCX5; [1]): 3.49
pKd (SNX27, Q96L92; [1]): 4.65
pKd (MAGI2_6, Q86UL8; [1]): below the threshold
pKd (Inadl_2, Q8NI35; [1]): below the threshold
pKd (GRID2IP_2, A4D2P6; [1]): below the threshold
pKd (MPDZ_12, O75970; [1]): below the threshold
pKd (GRIP1_4, Q9Y3R0; [1]): below the threshold
pKd (MAGI2_2, Q86UL8; [1]): below the threshold
pKd (GRIP2_4, Q9C0E4; [1]): below the threshold
pKd (SIPA1L2, Q9P2F8; [1]): 3.49
pKd (FRMPD4, Q14CM0; [1]): below the threshold
pKd (Inadl_1, Q8NI35; [1]): below the threshold
pKd (LIN7C, Q9NUP9; [1]): 3.93
pKd (GORASP1, Q9BQQ3; [1]): below the threshold
pKd (LDB3, O75112; [1]): below the threshold
pKd (FRMPD2_2, Q68DX3; [1]): below the threshold
pKd (SCRIB_3, Q14160; [1]): 3.88
pKd (DLG4_1, P78352; [1]): below the threshold
pKd (Inadl_6, Q8NI35; [1]): below the threshold
pKd (LNX1_3, Q8TBB1; [1]): below the threshold
